From PMC11745410

Target: TAX9-loaded HLA-A*02:01/β2m
Assay: SPR

Substance	fold decrease in KD against TAPBPR^WT (so in the source) [fold]
TAPBPR^∆ALAS (A29-S32 deletion) (from UniProt Q9BX59 22-405) (natural protein)	3
TAPBPR^∆G24-R36 (G24-R36 deletion) (from UniProt Q9BX59 22-405) (natural protein)	3
